Reference: US20140223606, “COMPOSITIONS AND METHODS COMPRISING SEQUENCES HAVING MEGANUCLEASE ACTIVITY” (PIONEER HI BRED INTERNATIONAL INC, published 2014)
Where a chain is given by its changes, count along the chain named.

Experiments:
Details in all cases: tags: NLS, 6xHis
ZM6.22v2(I7) = target: T1, ZM6.22v2(I7) (artificial); assay: cell_activity; yeast 37 C; 30 C: 0
T1 chain: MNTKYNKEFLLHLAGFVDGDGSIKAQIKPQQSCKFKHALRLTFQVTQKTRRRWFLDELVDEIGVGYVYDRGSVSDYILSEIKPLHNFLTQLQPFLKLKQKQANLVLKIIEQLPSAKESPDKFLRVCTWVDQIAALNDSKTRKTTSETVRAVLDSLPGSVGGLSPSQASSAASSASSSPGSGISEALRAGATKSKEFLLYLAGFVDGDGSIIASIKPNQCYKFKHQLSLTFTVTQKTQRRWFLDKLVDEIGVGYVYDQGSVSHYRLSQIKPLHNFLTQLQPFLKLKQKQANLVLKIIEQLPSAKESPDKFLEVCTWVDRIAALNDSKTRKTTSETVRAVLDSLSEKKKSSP
Procedure: (§1) A 3 mL culture of selective media (MP Biomedical) was inoculated with a single colony of the yeast screening strain and grown at 30° C. overnight. On the following day, a 50 ml YPD culture (MP Biomedical) was started with 2 ml of the overnight culture and grown at 30° C. overnight. On the following day, the cells were harvested by centrifugation at 4000 rpm. The cells were resuspended in 100 ml ice cold water and centrifuged again. The cells were then washed in 1.2 M sorbitol, followed by treatment with 2 ml of 10 mM Tris pH 8.0, 1 mM EDTA, 100 mM Lithium acetate, 10 mM DTT, 0.6M sorbitol for 30 minutes at 30° C. with shaking. The cells were recovered by centrifugation, washed in 40 ml 1.2M sorbitol and finally resuspended in 250 microliters of 1.2M sorbitol. 50 microliter aliquots were transferred to test tubes on ice. Up to 5 microliters of DNA (100-500 nanograms) were added. The suspension was transferred to a 0.2 cm electroporation cuvette, on ice. Electroporation was performed with a pulse charge at 1.5 kV, 200 ohms, 25 microF (pulse time of 5 milliseconds). 1 mL YPD media (MP Biomedical) was added and the cells were allowed to recover at 30° C. for 1-2 hr. The cells were centrifuged, resuspended in 100 uL 1M sorbitol and plated on selective media lacking leucine and containing 2% galactose. The resulting yeast colonies were incubated at various temperatures ranging from 22 to 37 degrees Celsius for 7-10 days. I-CreI and meganucleases derived from it have maximal activity at or above 37 degrees Celsius. Screening was performed at a range of temperatures from 22 to 37 degrees in order to observe increases in activity at lower temperatures which are relevant to certain biological systems (eg. plant cells, plant cell cultures, etc). At that time the red/white sectoring phenotype, indicative of meganuclease activity was observed. Colonies with increased white sectoring over the parental meganuclease (indicating colonies expressing a meganuclease with increased meganuclease activity), also referred to as “hits” and sometimes completely white, were isolated for further analysis.
(§2) A total of 13 ZM6.22v2 variants with increased activity were confirmed in the yeast system (as described in Example 6). Increased activity was observed across a range of temperatures: 28 degrees Celsius, 30 degrees Celsius and 37 degrees Celsius, as shown in Table 16.

ZM6.22v2(I4) = target: T2, ZM6.22v2(I4) (artificial); assay: cell_activity; yeast 37 C; 30 C: 0
T2 chain: T1 chain with H12Y, R50Q, V292A, V316A
Procedure: as §1, §2

ZM6.22v2 = target: T3, ZM6.22v2 (artificial); assay: cell_activity; yeast 37 C; 30 C: 0
T3 chain: T1 chain with H12Y, R50Q, E57K, R124E, R318Q
Procedure: as §1, §2

ZM6.22v2(J2) = target: T4, ZM6.22v2(J2) (artificial); assay: cell_activity; yeast 37 C; 30 C: 0
T4 chain: T1 chain with R50Q, E57K, R318Q
Procedure: as §1, §2

MHP14(14) = target: T5, MHP14(14) (artificial); assay: cell_activity; yeast 37 C; 28 C: 1
T5 chain: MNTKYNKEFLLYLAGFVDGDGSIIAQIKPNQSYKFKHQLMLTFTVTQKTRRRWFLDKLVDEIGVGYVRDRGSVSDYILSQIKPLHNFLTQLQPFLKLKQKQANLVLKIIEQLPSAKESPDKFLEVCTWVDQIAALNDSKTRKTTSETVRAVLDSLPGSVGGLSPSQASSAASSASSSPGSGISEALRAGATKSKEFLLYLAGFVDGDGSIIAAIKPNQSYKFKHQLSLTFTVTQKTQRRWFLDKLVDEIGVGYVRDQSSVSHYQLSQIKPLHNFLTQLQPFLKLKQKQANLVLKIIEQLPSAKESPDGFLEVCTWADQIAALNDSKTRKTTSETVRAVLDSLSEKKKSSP
Procedure: A 3 mL culture of selective media (MP Biomedical) was inoculated with a single colony of the yeast screening strain and grown at 30° C. overnight. On the following day, a 50 ml YPD culture (MP Biomedical) was started with 2 ml of the overnight culture and grown at 30° C. overnight. On the following day, the cells were harvested by centrifugation at 4000 rpm. The cells were resuspended in 100 ml ice cold water and centrifuged again. The cells were then washed in 1.2 M sorbitol, followed by treatment with 2 ml of 10 mM Tris pH 8.0, 1 mM EDTA, 100 mM Lithium acetate, 10 mM DTT, 0.6M sorbitol for 30 minutes at 30° C. with shaking. The cells were recovered by centrifugation, washed in 40 ml 1.2M sorbitol and finally resuspended in 250 microliters of 1.2M sorbitol. 50 microliter aliquots were transferred to test tubes on ice. Up to 5 microliters of DNA (100-500 nanograms) were added. The suspension was transferred to a 0.2 cm electroporation cuvette, on ice. Electroporation was performed with a pulse charge at 1.5 kV, 200 ohms, 25 microF (pulse time of 5 milliseconds). 1 mL YPD media (MP Biomedical) was added and the cells were allowed to recover at 30° C. for 1-2 hr. The cells were centrifuged, resuspended in 100 uL 1M sorbitol and plated on selective media lacking leucine and containing 2% galactose. The resulting yeast colonies were incubated at various temperatures ranging from 22 to 37 degrees Celsius for 7-10 days. I-CreI and meganucleases derived from it have maximal activity at or above 37 degrees Celsius. Screening was performed at a range of temperatures from 22 to 37 degrees in order to observe increases in activity at lower temperatures which are relevant to certain biological systems (eg. plant cells, plant cell cultures, etc). At that time the red/white sectoring phenotype, indicative of meganuclease activity was observed. Colonies with increased white sectoring over the parental meganuclease (indicating colonies expressing a meganuclease with increased meganuclease activity), also referred to as “hits” and sometimes completely white, were isolated for further analysis. […]

B1: ZM6.22v2 recognition site (dsDNA)
DNA 1: ATTGCTCTCTCACATACTTTTA
DNA 2: TAAAAGTATGTGAGAGAGCAAT
Which activity (ZM6.22v2(I7)) does the source give for B1 here?
The activity was 2 score 0-4.

What about the activity (ZM6.22v2(I4)) of the same binder?
The activity was 3 score 0-4.

What about the activity (ZM6.22v2) of the same binder?
The activity was 1 score 0-4.

And the activity (ZM6.22v2(J2))?
Its activity is 2 score 0-4.

B2: MHP14 recognition site (dsDNA)
DNA 1: CAAACAGATTCACGTCAGATTT
DNA 2: AAATCTGACGTGAATCTGTTTG
How did the activity (MHP14(14)) turn out when B2 was run?
The activity was 4 score 0-4.
